Data: publication PMC8582077

What was measured:
[1] = target: MERS-CoV Spike S1 protein (Middle East respiratory syndrome …, UniProt K9N5Q8 18-751); assay: bead-based fluorescence binding assay
[2] = target: myoglobin (horse, UniProt P68082 2-154); assay: EMSA
Sequence of myoglobin (P68082 2-154): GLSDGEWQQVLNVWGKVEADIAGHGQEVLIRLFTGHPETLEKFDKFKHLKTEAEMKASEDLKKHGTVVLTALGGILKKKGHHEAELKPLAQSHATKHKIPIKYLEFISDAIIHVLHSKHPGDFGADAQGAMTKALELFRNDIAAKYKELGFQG

Sequence of MERS-CoV Spike S1 protein (K9N5Q8 18-751): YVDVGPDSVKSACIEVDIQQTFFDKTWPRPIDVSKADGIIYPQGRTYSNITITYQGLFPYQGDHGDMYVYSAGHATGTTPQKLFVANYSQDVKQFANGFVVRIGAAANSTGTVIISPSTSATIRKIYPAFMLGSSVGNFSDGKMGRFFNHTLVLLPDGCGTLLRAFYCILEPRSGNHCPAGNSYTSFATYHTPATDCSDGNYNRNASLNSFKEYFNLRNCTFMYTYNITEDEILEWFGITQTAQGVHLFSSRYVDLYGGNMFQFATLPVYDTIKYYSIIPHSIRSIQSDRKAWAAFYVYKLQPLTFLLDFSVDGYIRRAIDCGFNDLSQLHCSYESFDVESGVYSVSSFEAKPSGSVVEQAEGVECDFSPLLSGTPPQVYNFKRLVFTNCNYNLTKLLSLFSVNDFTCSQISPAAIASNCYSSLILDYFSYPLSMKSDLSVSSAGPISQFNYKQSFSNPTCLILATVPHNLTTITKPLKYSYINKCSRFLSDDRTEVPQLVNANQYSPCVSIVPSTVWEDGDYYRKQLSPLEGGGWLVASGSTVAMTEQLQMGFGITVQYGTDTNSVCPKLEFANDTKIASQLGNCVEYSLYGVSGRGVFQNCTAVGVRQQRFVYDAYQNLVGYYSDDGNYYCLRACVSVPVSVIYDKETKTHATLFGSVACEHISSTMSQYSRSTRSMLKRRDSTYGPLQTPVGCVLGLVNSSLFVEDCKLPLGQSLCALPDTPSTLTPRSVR

Binder	Kd [1] [nM]	binding result [2]
S-19 aptamer (ssDNA) DNA: TGACACCGTACCTGCTCTGCACTTCCTTCACCAGAAACCTGCACATCTTCGCCGCGTGAAGCACGCCAAGGGACTAT	112 ± 3.89	–
S-12 aptamer (MERS aptamer-b) (ssDNA) DNA: TGACACCGTACCTGCTCTCCGACCCATCTAGCACTTCACACACGCCCGATCGGATTAGTAAGCACGCCAAGGGACTAT	287 ± 17.7	–
MF MERS aptamer (3WJ of MERSapt-3WJa, MB/3WJb, NH2/3WJc) (structured_DNA, 5' NH2 on S6) DNA 1: TGACACCGTACCTGCTCTGCACTTCCTTCACCAGAAACCTGCACATCTTCGCCGCGTGAAGCACGCCAAGGGACTATTTGCCATGTGTATGTGGG DNA 2: TTTGGGTAGGGCGGGTTGGGCCCACATACTTTGTTGATCC DNA 3: GGATCAATCATGGCAA	–	no binding
